± gives the uncertainty stated by the source.
Assay: protein stability index of a GFP-peptide fusion (yeast GPS) (PSI 1-4); higher = more stable; sorted into four equal gates, so the index is relative within each strain
Outline: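 Mid-log yeast cultures in leucine-free medium, carrying a pooled plasmid library, were sorted into four equal gates by their GFP/Cherry fluorescence ratio. Each plasmid expressed Cherry along with GFP fused upstream of a tiled 17-residue yeast protein peptide. Plasmids recovered from each gate were PCR-amplified and Illumina-sequenced, with reads assigned to strains by barcodes. The protein stability index was obtained by summing each gate's read frequency weighted by its gate number.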

| Sequence | protein stability index (doa10∆) | protein stability index (pdr5∆) | protein stability index (san1∆) | protein stability index (ubr1∆) |
| --- | --- | --- | --- | --- |
| RTAPKSDNVYLKLLVKL [RPL18A] | 2.6 ± 0.092 | 2.8 ± 0.093 | 2.7 ± 0.089 | 3.03 ± 0.068 |
| QQQQTSPPPQTHQSPPP [SNF5] | 2.883 ± 0.018 | 2.878 ± 0.016 | 2.88 ± 0.016 | 2.901 ± 0.014 |
| GRRLSMLASQANGGSTI [DSN1] | 2.1 ± 0.057 | 2.7 ± 0.074 | 2.42 ± 0.071 | 2.29 ± 0.047 |
| PWVVYLQILAMLLLNIF [YMR129W/POM152] | 1.19 ± 0.1 | 1.96 ± 0.072 | 1.18 ± 0.16 | 1.16 ± 0.08 |
| YSSAPLRTVKEVQFGLF [RPO21] | – | 2.27 ± 0.2 | – | – |
| YIHLAYSRSVDKEWVFA [SSN2] | 1.81 ± 0.079 | 1.5 ± 0.057 | 1.84 ± 0.091 | 1.72 ± 0.038 |
| KILEQFEYVLYPSKTLK [FAS2] | 3.01 ± 0.078 | 2.93 ± 0.069 | 2.97 ± 0.077 | 3.15 ± 0.064 |
| HQQQLQQPHYIQRTRER [DSN1] | 2.95 ± 0.055 | 3.08 ± 0.042 | 2.92 ± 0.037 | 2.84 ± 0.042 |
| DQEKKYGMSITETFEKP [RPB2] | 2.85 ± 0.11 | 3.4 ± 0.18 | 3.15 ± 0.096 | 3.5 ± 0.1 |
| LSSHSSTNSNSKPSTAS [RPN4] | 2.61 ± 0.087 | 2.71 ± 0.082 | 2.93 ± 0.059 | 2.86 ± 0.052 |
| WIAMRREKRDRTHFKRM [PRP8] | 1.99 ± 0.079 | 2.54 ± 0.078 | 2.04 ± 0.2 | 1.93 ± 0.065 |
| SAGKGISSSAIPYSRNA [RPS13] | 2.61 ± 0.037 | 2.58 ± 0.041 | 2.36 ± 0.048 | 2.21 ± 0.029 |
| SDEVSRGIPRLSEDELR [SMC4] | 3.43 ± 0.14 | 3.69 ± 0.21 | 3.39 ± 0.14 | 3.58 ± 0.1 |
| TAEDSWAVISAFFREKG [RPB2] | 3.26 ± 0.12 | 3.02 ± 0.073 | 2.61 ± 0.068 | 2.94 ± 0.063 |
| ANRVTDKLTRVHDKIWC [PRE3] | 2 ± 0.12 | 2.42 ± 0.085 | 2.38 ± 0.063 | 2.34 ± 0.095 |
| ISQKLTNVNVKIKDVQQ [SMC3] | 1.97 ± 0.12 | 2.34 ± 0.064 | 2.27 ± 0.14 | 2.32 ± 0.19 |
| IYGVEWLIEGKLYVDAV [YDL116W/NUP84] | – | 1.2 ± 0.082 | – | – |
| YTQQQALEYIGAKVKTM [RET1] | 1.97 ± 0.063 | 2.34 ± 0.072 | 2.25 ± 0.086 | 2.1 ± 0.059 |
| KNEEAEIEVDEMEVDAE [RPN1] | 3.4 ± 0.14 | 3.51 ± 0.11 | 3.19 ± 0.12 | 3.62 ± 0.1 |
| VIVELLPQSEWKAPSSI [DIS3] | 2.79 ± 0.071 | 2.57 ± 0.062 | 2.02 ± 0.062 | 2.1 ± 0.048 |
| GVRSNHLRSNILKDLIY [SMC1] | 2.47 ± 0.28 | 2.35 ± 0.16 | – | 2.82 ± 0.13 |
| VEGPKFTIDAKPPISDS [YLR335W/NUP2] | 3.31 ± 0.048 | 3.47 ± 0.058 | 3.29 ± 0.048 | 3.36 ± 0.046 |
| HAYNITFNNQDKGLLPY [RPO31] | 2.64 ± 0.09 | 3.09 ± 0.2 | 1.76 ± 0.098 | 2.91 ± 0.057 |
| ELDTASRILKAQSRNVE [YGR119C/NUP57] | 2.35 ± 0.055 | 2.34 ± 0.063 | 2.03 ± 0.077 | 2.43 ± 0.056 |
| LSLMLESPNYCNALIHI [SRB4] | 1.52 ± 0.044 | 1.78 ± 0.035 | 1.72 ± 0.075 | 1.75 ± 0.035 |
| IQHVGMINGRKLIKFET [FAS1] | 2.82 ± 0.072 | 2.85 ± 0.074 | 3.05 ± 0.085 | 2.81 ± 0.041 |

| Sequence | protein stability index (doa10∆) | protein stability index (pdr5∆) | protein stability index (san1∆) | protein stability index (ubr1∆) |
| --- | --- | --- | --- | --- |
| PITGASLDLIKERRSLK [RPL24A] | 3.04 ± 0.097 | 3.07 ± 0.078 | 3.02 ± 0.067 | 2.98 ± 0.06 |
| IFNGETLEDALRRIITD [GRR1] | 1.96 ± 0.084 | 1.96 ± 0.059 | 2.07 ± 0.07 | 2.07 ± 0.064 |
| YESQTFSSKNEWRKSAI [PRP8] | 3.23 ± 0.076 | 3.28 ± 0.063 | 3.29 ± 0.06 | 3.01 ± 0.059 |
| NAAPANVTGGKAANFIQ [SWI1] | 2.52 ± 0.05 | 1.86 ± 0.045 | 2.48 ± 0.086 | 2.46 ± 0.049 |
| LELVNTPLTENILIASL [YCG1] | 1.66 ± 0.052 | 1.62 ± 0.042 | 1.93 ± 0.083 | 2.27 ± 0.037 |
| YPMMHQVRNQVFMLDTK [RGR1] | 2.25 ± 0.08 | 2.35 ± 0.08 | 2.3 ± 0.081 | 2.75 ± 0.068 |
| IDEIDAIGTKRYDSNSG [RPT2] | – | 2.26 ± 0.14 | 2.36 ± 0.087 | 2.92 ± 0.19 |
| SVSLVDEFPSELSDSDR [SIR4] | 2.68 ± 0.071 | 2.57 ± 0.058 | 2.64 ± 0.067 | 2.16 ± 0.057 |
| MRAKWRKKRTRRLKRKR [RPL41A] | 3.47 ± 0.16 | 3.06 ± 0.13 | 3.34 ± 0.16 | 3.44 ± 0.15 |
| AVVGNNMLLDPAANESE [RRP42] | 1.47 ± 0.083 | 1.81 ± 0.073 | 2.48 ± 0.093 | 2.12 ± 0.048 |
| HSNRCIVFSKKEPFPHS [CSN12] | 2.49 ± 0.043 | 2.85 ± 0.047 | 2.8 ± 0.058 | 2.69 ± 0.037 |
| AEKFVPIDIFQIIRRVK [SIR3] | 1.57 ± 0.28 | 1.46 ± 0.15 | – | 1.16 ± 0.2 |
| TIKDLVGGKSTVQNEIL [FAS2] | 3.03 ± 0.073 | 2.92 ± 0.1 | 2.21 ± 0.1 | 3.24 ± 0.11 |
| QILPESQWNDSSIDKIE [SIR3] | – | 3.42 ± 0.18 | – | 2.81 ± 0.12 |
| TKFSNPAIPPVIDLEKI [BRR2] | 2.57 ± 0.068 | 2.75 ± 0.068 | 2.66 ± 0.063 | 2.65 ± 0.052 |
| TAPSSQRRVLLSAPLSK [RPL26A] | 2.45 ± 0.045 | 2.31 ± 0.053 | 2.31 ± 0.055 | 2.18 ± 0.036 |
| IIRHEKELEPWDLQLQE [SMC4] | 3.28 ± 0.15 | 2.82 ± 0.13 | – | 3.47 ± 0.16 |
| LSIRLTNQLKSLKGLQS [RPN8] | 1.48 ± 0.17 | 1.49 ± 0.16 | 2.62 ± 0.19 | 1.24 ± 0.079 |
| KKGESEKDASGKPSFVF [YOR098C/NUP1] | 2.19 ± 0.066 | 2.32 ± 0.1 | 2.32 ± 0.15 | 2.23 ± 0.073 |
| IENMTKEKVSNGGVGVD [FAS2] | 3.23 ± 0.088 | 3.16 ± 0.1 | 3.33 ± 0.087 | 3.11 ± 0.063 |
| EEDFYTVVGNASFGKNL [DSN1] | 1.99 ± 0.12 | 1.38 ± 0.25 | 2.9 ± 0.23 | 3.12 ± 0.14 |
| RSNDPQSSLSKVDIPLE [NUT2] | 3.02 ± 0.098 | 3.23 ± 0.094 | 3.27 ± 0.056 | 2.93 ± 0.15 |
| SLSDNDLAVCATIIGII [ECM29] | 2.71 ± 0.072 | 2.83 ± 0.056 | 2.78 ± 0.053 | 2.75 ± 0.038 |
| KSTPEGTLWAHVLKTVD [SNU114] | 2.1 ± 0.058 | 1.93 ± 0.048 | 2.43 ± 0.072 | 2.27 ± 0.038 |
| SLKLENSDLEGKIRGVE [SMC2] | 3.23 ± 0.086 | 3.37 ± 0.064 | 3.37 ± 0.061 | 3.21 ± 0.05 |
